Tested on: Escherichia coli TOP10
Test: shrunken log2 fold change of peptide-encoding DNA abundance (4.5 h post-induction vs induction); higher = less antimicrobial activity (less host growth inhibition)
Details: time post-induction: 4.5 h; library: site-saturation at positions 5, 18, 19, 20
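Further: peptides expressed intracellularly from a pBAD plasmid library in pooled LB shake-flask culture, induced with 0.3% L-arabinose, DNA abundance read by NGS, three biological replicates, DESeq2 with apeglm shrinkage.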

For RRIRRRPPRLPRPRPRPSSSPRP, the “shrunken log2 fold change” value was 0.133.

For RRIRRRPPRLPRPRPRPSTCPRP, the “shrunken log2 fold change” value was 0.0254.

With RRIRRRPPRLPRPRPRPSTIPRP the “shrunken log2 fold change” value was -0.121.

With RRIRRRPPRLPRPRPRPSTPPRP the “shrunken log2 fold change” value was 0.225.

RRIRRRPPRLPRPRPRPSVKPRP was tested, and the “shrunken log2 fold change” value was 0.155.

For RRIRRRPPRLPRPRPRPTATPRP, the “shrunken log2 fold change” value was 1.56.

For RRIRRRPPRLPRPRPRPTCGPRP, the “shrunken log2 fold change” value was 0.506.

In the case of RRIRRRPPRLPRPRPRPTCNPRP, the “shrunken log2 fold change” value is reported as 0.026.

For RRIRRRPPRLPRPRPRPTDAPRP, the “shrunken log2 fold change” value was 0.198.

In the case of RRIRRRPPRLPRPRPRPTDRPRP, the “shrunken log2 fold change” value is reported as 0.194.

RRIRRRPPRLPRPRPRPTEAPRP was tested, and the “shrunken log2 fold change” value was 0.0804.

With RRIRRRPPRLPRPRPRPTGNPRP the “shrunken log2 fold change” value was 0.0381.

In the case of RRIRRRPPRLPRPRPRPTHEPRP, the “shrunken log2 fold change” value is reported as 0.338.

For RRIRRRPPRLPRPRPRPTHHPRP, the “shrunken log2 fold change” value was 0.8.

With RRIRRRPPRLPRPRPRPTHNPRP the “shrunken log2 fold change” value was 0.695.

RRIRRRPPRLPRPRPRPTINPRP was tested, and the “shrunken log2 fold change” value was -0.134.

With RRIRRRPPRLPRPRPRPTKTPRP the “shrunken log2 fold change” value was 0.049.

With RRIRRRPPRLPRPRPRPTLPPRP the “shrunken log2 fold change” value was 0.482.

For RRIRRRPPRLPRPRPRPTMCPRP, the “shrunken log2 fold change” value was 0.233.

For RRIRRRPPRLPRPRPRPTMFPRP, the “shrunken log2 fold change” value was 0.0275.

For RRIRRRPPRLPRPRPRPTMSPRP, the “shrunken log2 fold change” value was 0.315.

RRIRRRPPRLPRPRPRPTNVPRP was tested, and the “shrunken log2 fold change” value was -0.0322.

For RRIRRRPPRLPRPRPRPTQCPRP, the “shrunken log2 fold change” value was 0.252.

For RRIRRRPPRLPRPRPRPTQVPRP, the “shrunken log2 fold change” value was 0.677.

With RRIRRRPPRLPRPRPRPTRMPRP the “shrunken log2 fold change” value was 1.08.

RRIRRRPPRLPRPRPRPTTRPRP was tested, and the “shrunken log2 fold change” value was 0.941.

In the case of RRIRRRPPRLPRPRPRPTVGPRP, the “shrunken log2 fold change” value is reported as 0.0232.

For RRIRRRPPRLPRPRPRPTVTPRP, the “shrunken log2 fold change” value was 0.144.

For RRIRRRPPRLPRPRPRPTYCPRP, the “shrunken log2 fold change” value was -0.0567.

With RRIRRRPPRLPRPRPRPVAIPRP the “shrunken log2 fold change” value was 0.687.

With RRIRRRPPRLPRPRPRPVCAPRP the “shrunken log2 fold change” value was 0.547.

RRIRRRPPRLPRPRPRPVCIPRP was tested, and the “shrunken log2 fold change” value was 0.0361.

In the case of RRIRRRPPRLPRPRPRPVCWPRP, the “shrunken log2 fold change” value is reported as 0.586.

In the case of RRIRRRPPRLPRPRPRPVDQPRP, the “shrunken log2 fold change” value is reported as 0.348.

In the case of RRIRRRPPRLPRPRPRPVEGPRP, the “shrunken log2 fold change” value is reported as 0.268.

For RRIRRRPPRLPRPRPRPVETPRP, the “shrunken log2 fold change” value was 0.181.

RRIRRRPPRLPRPRPRPVFAPRP was tested, and the “shrunken log2 fold change” value was 0.455.

For RRIRRRPPRLPRPRPRPVGMPRP, the “shrunken log2 fold change” value was 1.08.

In the case of RRIRRRPPRLPRPRPRPVHAPRP, the “shrunken log2 fold change” value is reported as 0.67.

RRIRRRPPRLPRPRPRPVHHPRP was tested, and the “shrunken log2 fold change” value was -0.468.

For RRIRRRPPRLPRPRPRPVHSPRP, the “shrunken log2 fold change” value was -0.0233.

With RRIRRRPPRLPRPRPRPVKNPRP the “shrunken log2 fold change” value was 0.148.

RRIRRRPPRLPRPRPRPVLAPRP was tested, and the “shrunken log2 fold change” value was 0.83.

With RRIRRRPPRLPRPRPRPVLDPRP the “shrunken log2 fold change” value was 0.402.

In the case of RRIRRRPPRLPRPRPRPVLQPRP, the “shrunken log2 fold change” value is reported as 0.0941.

In the case of RRIRRRPPRLPRPRPRPVMLPRP, the “shrunken log2 fold change” value is reported as -0.0342.

In the case of RRIRRRPPRLPRPRPRPVNAPRP, the “shrunken log2 fold change” value is reported as 0.37.

RRIRRRPPRLPRPRPRPVNDPRP was tested, and the “shrunken log2 fold change” value was 0.52.

For RRIRRRPPRLPRPRPRPVQKPRP, the “shrunken log2 fold change” value was 0.223.

For RRIRRRPPRLPRPRPRPVQVPRP, the “shrunken log2 fold change” value was 0.189.

With RRIRRRPPRLPRPRPRPVQYPRP the “shrunken log2 fold change” value was -0.00909.

RRIRRRPPRLPRPRPRPVVWPRP was tested, and the “shrunken log2 fold change” value was 0.643.

In the case of RRIRRRPPRLPRPRPRPVWRPRP, the “shrunken log2 fold change” value is reported as 0.436.

RRIRRRPPRLPRPRPRPVYFPRP was tested, and the “shrunken log2 fold change” value was -0.267.

For RRIRRRPPRLPRPRPRPVYQPRP, the “shrunken log2 fold change” value was -0.384.

In the case of RRIRRRPPRLPRPRPRPVYSPRP, the “shrunken log2 fold change” value is reported as -0.139.

With RRIRRRPPRLPRPRPRPWARPRP the “shrunken log2 fold change” value was 0.222.

RRIRRRPPRLPRPRPRPWAWPRP was tested, and the “shrunken log2 fold change” value was 0.0216.

With RRIRRRPPRLPRPRPRPWDWPRP the “shrunken log2 fold change” value was 0.428.

RRIRRRPPRLPRPRPRPWEMPRP was tested, and the “shrunken log2 fold change” value was -0.171.

With RRIRRRPPRLPRPRPRPWGHPRP the “shrunken log2 fold change” value was -0.165.

RRIRRRPPRLPRPRPRPWHLPRP was tested, and the “shrunken log2 fold change” value was -0.138.

For RRIRRRPPRLPRPRPRPWHTPRP, the “shrunken log2 fold change” value was -0.456.

For RRIRRRPPRLPRPRPRPWHVPRP, the “shrunken log2 fold change” value was -0.135.

For RRIRRRPPRLPRPRPRPWIAPRP, the “shrunken log2 fold change” value was -0.00369.

RRIRRRPPRLPRPRPRPWIRPRP was tested, and the “shrunken log2 fold change” value was -0.298.

In the case of RRIRRRPPRLPRPRPRPWKHPRP, the “shrunken log2 fold change” value is reported as -0.167.

With RRIRRRPPRLPRPRPRPWLFPRP the “shrunken log2 fold change” value was 0.383.

RRIRRRPPRLPRPRPRPWLIPRP was tested, and the “shrunken log2 fold change” value was -0.319.

For RRIRRRPPRLPRPRPRPWLMPRP, the “shrunken log2 fold change” value was -0.185.

With RRIRRRPPRLPRPRPRPWMRPRP the “shrunken log2 fold change” value was 0.172.

With RRIRRRPPRLPRPRPRPWQGPRP the “shrunken log2 fold change” value was -0.00783.

For RRIRRRPPRLPRPRPRPWQIPRP, the “shrunken log2 fold change” value was 0.0297.

With RRIRRRPPRLPRPRPRPWRCPRP the “shrunken log2 fold change” value was 0.175.

In the case of RRIRRRPPRLPRPRPRPWRFPRP, the “shrunken log2 fold change” value is reported as 0.012.

With RRIRRRPPRLPRPRPRPWRWPRP the “shrunken log2 fold change” value was 0.14.

For RRIRRRPPRLPRPRPRPWTCPRP, the “shrunken log2 fold change” value was 0.0743.

RRIRRRPPRLPRPRPRPWTGPRP was tested, and the “shrunken log2 fold change” value was -0.444.

RRIRRRPPRLPRPRPRPWVNPRP was tested, and the “shrunken log2 fold change” value was -0.0334.

With RRIRRRPPRLPRPRPRPWWDPRP the “shrunken log2 fold change” value was -0.0777.

With RRIRRRPPRLPRPRPRPWYEPRP the “shrunken log2 fold change” value was -0.16.

For RRIRRRPPRLPRPRPRPWYFPRP, the “shrunken log2 fold change” value was -0.204.

With RRIRRRPPRLPRPRPRPWYQPRP the “shrunken log2 fold change” value was -3.03.

With RRIRRRPPRLPRPRPRPYAPPRP the “shrunken log2 fold change” value was -0.0565.

For RRIRRRPPRLPRPRPRPYDGPRP, the “shrunken log2 fold change” value was -0.101.

For RRIRRRPPRLPRPRPRPYFHPRP, the “shrunken log2 fold change” value was -0.387.

In the case of RRIRRRPPRLPRPRPRPYKAPRP, the “shrunken log2 fold change” value is reported as -0.108.

In the case of RRIRRRPPRLPRPRPRPYLDPRP, the “shrunken log2 fold change” value is reported as -0.546.

In the case of RRIRRRPPRLPRPRPRPYLHPRP, the “shrunken log2 fold change” value is reported as -0.307.

With RRIRRRPPRLPRPRPRPYLWPRP the “shrunken log2 fold change” value was -0.439.

With RRIRRRPPRLPRPRPRPYMDPRP the “shrunken log2 fold change” value was -0.138.

With RRIRRRPPRLPRPRPRPYNCPRP the “shrunken log2 fold change” value was 0.00861.

RRIRRRPPRLPRPRPRPYNNPRP was tested, and the “shrunken log2 fold change” value was -0.76.

With RRIRRRPPRLPRPRPRPYPTPRP the “shrunken log2 fold change” value was -0.0423.

RRIRRRPPRLPRPRPRPYRCPRP was tested, and the “shrunken log2 fold change” value was -1.3.

With RRIRRRPPRLPRPRPRPYRGPRP the “shrunken log2 fold change” value was -0.191.

With RRIRRRPPRLPRPRPRPYRMPRP the “shrunken log2 fold change” value was -0.292.

RRIRRRPPRLPRPRPRPYSQPRP was tested, and the “shrunken log2 fold change” value was -0.032.

With RRIRRRPPRLPRPRPRPYSRPRP the “shrunken log2 fold change” value was -0.391.

For RRIRRRPPRLPRPRPRPYSTPRP, the “shrunken log2 fold change” value was -0.295.

With RRIRRRPPRLPRPRPRPYSYPRP the “shrunken log2 fold change” value was -0.0587.

RRIRRRPPRLPRPRPRPYTQPRP was tested, and the “shrunken log2 fold change” value was -0.141.

For RRIRRRPPRLPRPRPRPYTRPRP, the “shrunken log2 fold change” value was 0.000194.

RRIRRRPPRLPRPRPRPYTWPRP was tested, and the “shrunken log2 fold change” value was -0.299.

For RRIRRRPPRLPRPRPRPYVEPRP, the “shrunken log2 fold change” value was -0.482.

In the case of RRIRRRPPRLPRPRPRPYYWPRP, the “shrunken log2 fold change” value is reported as -0.0449.

For RRIRSRPPRLPRPRPRPACDPRP, the “shrunken log2 fold change” value was 0.119.

RRIRSRPPRLPRPRPRPACFPRP was tested, and the “shrunken log2 fold change” value was 1.54.

RRIRSRPPRLPRPRPRPACGPRP was tested, and the “shrunken log2 fold change” value was 0.436.
